The target of assay [1] is human BTN3A1 recombinant protein with his tag (h-BTN3A1-his) (human) (UniProt O00481). The assay can be described thus: ELISA, plate coated with h-BTN3A1-his 1 ug/mL, B cell supernatant. (In general: In an ELISA, binding on a coated surface is turned into a signal by an enzyme label.)
Assay [2] addresses human BTN3A1 expressed on HEK293 cells (human) (UniProt O00481). Briefly: flow cytometry, HEK293 cells transiently expressing human BTN3A1, B cell supernatant.
For assay [3], the target named is BTN3A protein on SKOV-3 cells. Briefly: cell-based or functional assay.

Chain of human BTN3A1 expressed on HEK293 cells (human) (O00481 30-513): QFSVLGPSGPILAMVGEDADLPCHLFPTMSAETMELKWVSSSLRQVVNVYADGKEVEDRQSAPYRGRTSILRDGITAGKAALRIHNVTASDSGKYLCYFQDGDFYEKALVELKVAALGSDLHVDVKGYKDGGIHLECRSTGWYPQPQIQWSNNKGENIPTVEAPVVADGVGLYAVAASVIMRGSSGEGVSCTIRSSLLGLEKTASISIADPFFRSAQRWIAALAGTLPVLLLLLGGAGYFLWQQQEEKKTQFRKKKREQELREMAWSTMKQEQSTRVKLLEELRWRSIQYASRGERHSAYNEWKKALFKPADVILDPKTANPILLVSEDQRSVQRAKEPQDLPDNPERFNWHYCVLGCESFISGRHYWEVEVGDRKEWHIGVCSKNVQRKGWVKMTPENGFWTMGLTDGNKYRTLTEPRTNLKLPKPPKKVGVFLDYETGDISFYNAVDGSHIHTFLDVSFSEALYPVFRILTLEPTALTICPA
Chain of human BTN3A1 recombinant protein with his tag (h-BTN3A1-his) (human) (O00481 30-254 limits assumed): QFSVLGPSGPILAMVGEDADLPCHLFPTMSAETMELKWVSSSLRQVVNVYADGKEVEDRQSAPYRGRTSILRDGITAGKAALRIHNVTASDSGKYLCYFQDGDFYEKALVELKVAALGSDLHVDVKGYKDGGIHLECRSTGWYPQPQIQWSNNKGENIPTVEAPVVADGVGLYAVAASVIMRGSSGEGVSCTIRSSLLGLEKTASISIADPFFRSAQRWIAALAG

B1: anti-BTN3A1 rabbit-derived monoclonal antibody r20A3 (antibody, V domains shown)
VH: QSVEESGGRLVTPGTPLTLTCTASGFTINNYYMNWVRQAPGKGLEWIGIIYGSDNTYYASWAKGRFTISKTSTTVDLIMTSPTTEDTATYFCVRNLDYSSAYFHIWGPGTLVTVSS
VL: QVLTQTPSPVSAAVGGTVSISCQASQSVYNNNRLAWYQQKPGQPPNLLIYEASKLASGVPSRFKGSGSGTQFTLIISEVQCEDAATYYCQGYYSGFIYPFGGGTEVVVK
As to B1, the ELISA (OD 450) in assay [1] worked out at 2.1 OD450. In addition, in assay [2], the MFI came out at 190000 MFI and the Percentage (%) is 98.3%.

B2: 20A3-H2L2 (antibody, human IgG1, kappa)
heavy: EVQLVESGGGLVQPGGSLRLSCAASGFTINNYYMNWVRQAPGKGLEWVSIIYGSDNTYYASWAKGRFTISKDNSKNTVYLQMNSLRAEDTAVYYCVRNLDYSSAYFHIWGQGTLVTVSSASTKGPSVFPLAPSSKSTSGGTAALGCLVKDYFPEPVTVSWNSGALTSGVHTFPAVLQSSGLYSLSSVVTVPSSSLGTQTYICNVNHKPSNTKVDKRVEPKSCDKTHTCPPCPAPEFEGGPSVFLFPPKPKDTLMISRTPEVTCVVVDVSHEDPEVKFNWYVDGVEVHNAKTKPREEQYNSTYRVVSVLTVLHQDWLNGKEYKCKVSNKALPASIEKTISKAKGQPREPQVYTLPPSREEMTKNQVSLTCLVKGFYPSDIAVEWESNGQPENNYKTTPPVLDSDGSFFLYSKLTVDKSRWQQGNVFSCSVMHEALHNHYTQKSLSLSPGK
light: DIQLTQSPSSLSASVGDRVTITCQASQSVYNNNRLAWYQQKPGKPPKLLIYEASKLASGVPSRFSGSGSGTDFTLTISSLQPEDVATYYCQGYYSGFIYPFGGGTKVEIKRTVAAPSVFIFPPSDEQLKSGTASVVCLLNNFYPREAKVQWKVDNALQSGNSQESVTEQDSKDSTYSLSSTLTLSKADYEKHKVYACEVTHQGLSSPVTKSFNRGEC
On to B2, for which, in assay [3], the EC50 of IFNγ secretion by Vγ9Vδ2 T cells co-cultured with SKOV-3 cells was 0.284 nM and the Maximum IFNγ (pg/mL), Vγ9Vδ2 T cells co-cultured with SKOV-3 cells came out at 2470 pg/mL.

B3: anti-BTN3A1 rabbit-derived monoclonal antibody r17G4 (antibody, V domains shown)
VH: QSLEESGGRLVTPGTPLTLTCTASGFSLNDYYITWVRQAPGKGLEWIGVIYGSSNTVYASWAKGRFTISKTSTMVDLRITSPTTEDTATYFCARGYLASSADIWGPGTLVTVSL
VL: QVLTQTPSPVSAAVGGTVTINCQSSQSVYNNNRLAWYQQKPGQPPKLLIYDASTLASGVPSRFKGSGSGTDFTLTISDLECADAATYYCQTYYSGYIWAFGGGTEVVVK
For the molecule B3, in assay [1], the ELISA (OD 450) was determined as 1.84 OD450. Besides, in assay [2], the MFI was determined as 444000 MFI and the Percentage (%) was 99%.
